# Test results: patent US20200392247A1 (MCMASTER UNIVERSITY, published 2020)
# Assays:
# recombinant HER-2 = target: T1, recombinant HER-2 (UniProt P04626 23-652, limits assumed); experiment: flow cytometry of engineered T cells stained with recombinant HER-2
# T1 construct: also called recombinant HER-2 protein; HER-2 (erbB-2)
# Method: The chimeric receptors were detected by incubation with recombinant HER-2. The Anti-HER-2 DARPin Tri-TAC was expressed well on the surface of the engineered T cells. However, its maximal surface expression was lower compared to the Anti-HER-2 DARPin CAR construct. […] T cells were activated with anti-CD3/anti-CD28 Dynabeads and engineered with lentiviruses encoding the Tri-TAC, CAR or no receptor (control). After 2 weeks, the CAR and control cultures had grown to similar numbers while the Tri-TAC cultures grew slightly more slowly.
# β-Actin = β-Actin (UniProt P60709 1-375); experiment: immunoprecipitation of the Tri-TAC with recombinant HER-2 beads from 293TM cells, Western blot
# Method: (§1) FIG. 5 illustrates Lck interaction with the Tri-TAC. In FIG. 5A, 293TM cells were engineered to express Lck in combination with either the full-length Tri-TAC or a Tri-TAC variant that lacked the cytosolic domain that interacts with Lck. The Tri-TAC receptors were immunoprecipitated with beads carrying recombinant HER-2 protein. The precipitated Tri-TAC was measured by Western blot with an antibody against the myc tag. Co-precipitated Lck was identified by Western blot with an antibody against Lck. β-Actin was not pulled down and only detected in the supernatant (S). Both full length Tri-TAC and the Tri-TAC that lacked the cytosolic domain were efficiently pulled down and detected in the bound fraction (B). […] Greater amounts of Lck were co-immunopreciptated with the full-length Tri-TAC relative to the controls. […] Signal was corrected relative to the negative control.
# Lck = target: T2, Lck (UniProt P06239 1-509, limits assumed); experiment: co-immunoprecipitation with recombinant HER-2 beads from 293TM cells, Western blot for Lck
# T2 construct: also called protein kinase Lck
# Method: as §1
# T2 sequence (P06239 whole entry): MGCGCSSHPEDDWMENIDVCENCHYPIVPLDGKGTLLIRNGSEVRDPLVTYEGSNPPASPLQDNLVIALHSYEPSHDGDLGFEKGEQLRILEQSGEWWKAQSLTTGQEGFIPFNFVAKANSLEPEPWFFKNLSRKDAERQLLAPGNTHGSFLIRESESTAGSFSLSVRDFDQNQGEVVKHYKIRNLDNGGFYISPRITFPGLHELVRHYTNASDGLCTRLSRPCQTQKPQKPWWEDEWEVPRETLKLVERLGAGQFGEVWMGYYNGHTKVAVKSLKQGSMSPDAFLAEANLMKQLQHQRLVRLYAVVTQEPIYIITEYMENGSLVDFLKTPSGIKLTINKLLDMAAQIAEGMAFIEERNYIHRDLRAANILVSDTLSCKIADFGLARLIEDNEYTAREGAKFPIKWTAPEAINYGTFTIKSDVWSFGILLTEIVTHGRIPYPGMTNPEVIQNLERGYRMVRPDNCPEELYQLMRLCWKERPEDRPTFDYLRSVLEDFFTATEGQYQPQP
Binder,binding result (recombinant HER-2),binding result (β-Actin),binding result (Lck)
"Anti-HER-2 DARPin CAR (CD28-based CAR) (other, Expressed on the surface of engineered human T cells; also called conventional CAR with the same DARPin; anti-HER-2 DARPin CD28-based CAR; not shown: rest of the CD28-based CAR (hinge, transmembrane and signalling domains)) MSRGSDLGKKLLEAARAGQDDEVRILMANGADVNAKDEYGLTPLYLATAHGHLEIVEVLLKNGADVNAVDAIGFTPLHLAAFIGHLEIAEVLLKHGADVNAQDKFGKTAFDISIGNGNEDLAEILQKLN",binds,–,–
"Anti-HER-2 DARPin Tri-TAC (full-length Trifunctional T cell-antigen coupler, configuration 1) (other, also called N-Darpin Tri TAC; full length Tri-TAC) MSRGSDLGKKLLEAARAGQDDEVRILMANGADVNAKDEYGLTPLYLATAHGHLEIVEVLLKNGADVNAVDAIGFTPLHLAAFIGHLEIAEVLLKHGADVNAQDKFGKTAFDISIGNGNEDLAEILQKLNEQKLISEEDLNPGGGGGSGGGGSGGGGSGGGGSGSMDIQMTQTTSSLSASLGDRVTISCRASQDIRNYLNWYQQKPDGTVKLLIYYTSRLHSGVPSKFSGSGSGTDYSLTISNLEQEDIATYFCQQGNTLPWTFAGGTKLEIKGGGGSGGGGSGGGGSGGGGSEVQLQQSGPELVKPGASMKISCKASGYSFTGYTMNWVKQSHGKNLEWMGLINPYKGVSTYNQKFKDKATLTVDKSSSTAYMELLSLTSEDSAVYYCARSGYYGDSDWYFDVWGQGTTLTVFSTSGGGGSLESGQVLLESNIKVLPTWSTPVQPMALIVLGGVAGLLLFIGLGIFFCVRCRHRRRQAERMSQIKRLLSEKKTCQCPHRFQKTCSPI",binds,no binding,–
"Tri-TAC variant that lacked the cytosolic domain that interacts with Lck (other, Expressed in 293TM cells; also called cytosolic deletion; TAC without cytosolic domain) MSRGSDLGKKLLEAARAGQDDEVRILMANGADVNAKDEYGLTPLYLATAHGHLEIVEVLLKNGADVNAVDAIGFTPLHLAAFIGHLEIAEVLLKHGADVNAQDKFGKTAFDISIGNGNEDLAEILQKLNEQKLISEEDLNPGGGGGSGGGGSGGGGSGGGGSGSMDIQMTQTTSSLSASLGDRVTISCRASQDIRNYLNWYQQKPDGTVKLLIYYTSRLHSGVPSKFSGSGSGTDYSLTISNLEQEDIATYFCQQGNTLPWTFAGGTKLEIKGGGGSGGGGSGGGGSGGGGSEVQLQQSGPELVKPGASMKISCKASGYSFTGYTMNWVKQSHGKNLEWMGLINPYKGVSTYNQKFKDKATLTVDKSSSTAYMELLSLTSEDSAVYYCARSGYYGDSDWYFDVWGQGTTLTVFSTSGGGGSLESGQVLLESNIKVLPTWSTPVQPMALIVLGGVAGLLLFIGLGIFF",–,no binding,no binding
